In patent US20240216513A1, “FATTY ACID-BIFUNCTIONAL DEGRADER CONJUGATES AND THEIR METHODS OF USE” (Novartis AG, priority 2021, published 2024):

Assays:
[1] = BTK FAC plasma stability assay, mouse plasma; format: in vitro ADME; conditions: for Plasma stability (h) mouse: incubation to 24 h
Method in brief: (§1)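 Stability in PBS buffer or EDTA-treated plasma is followed over 24 h at 38 °C with shaking. Protein precipitation with acetonitrile (glyburide 0.2 µM as internal standard) stops each timepoint, and LC-MS/MS gives analyte-to-standard area ratios.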

[2] = BTK FAC plasma stability assay, PBS buffer arm; format: physicochemical; conditions: for Plasma stability (h) PBS: incubation to 24 h
Method in brief: as §1

[3] = In vivo pharmacokinetic study in Beagle dogs (i.v. or s.c.), FAC and payload in blood; parameters: species or system dog; conditions: analyte payload after FAC i.v. dose 1 umol/kg
Procedure: (§2) Pharmacokinetic studies were conducted in male C57/B16 mice; male Sprague-Dawley rats; male Beagle dogs and male Cynomolgus monkeys. 3 animals per group were used for each study performed. All studies were performed in accordance with local animal welfare regulations.
Between 1 and 10 µM/kg FAC was administered either intravenously or subcutaneously as a solution in 10 mM PBS with NaOH (dose volume 0.4 mL/kg in dog and monkey s.c. and 0.2 mL/kg i.v. in monkey). Serial 100 µL blood samples were collected via venipuncture of the cephalic vein at defined timepoints to 336 hours (into EDTA coated tubes).
(§3) Each blood sample was precipitated with acetonitrile containing internal standard; samples were mixed and centrifuged (20 minutes 4000 RPM at 4° C.). Supernatant was transferred to a microwell plate and evaporated under nitrogen at 60° C. Residue was resuspended in acetonitrile/water (7:3 v/v); plate sealed and transferred to an ultrasonic bath for 3 minutes, prior to analysis. Quantification was performed by LC-MS/MS (SciexAP16500 Q-trap, Shimadzu Nexera X2) using a Phenomenex Polar RP analytical column (2.5 μm particle size; 50×2 mm). The mobile phase consisted of solvent A (0.1% formic acid in water) and solvent B (0.1% formic acid in acetonitrile). The fatty acid conjugate and API were detected using multiple reaction monitoring.
(§4) Data analysis and calculation of non-compartmental pharmacokinetic parameters was
(§5) performed using an in-house analysis. Following intravenous administration whole blood clearance was calculated by the dose administered divided by AUC0-inf. Volume of distribution at steady state was calculated as MRT*CL, where MRT is the mean residence time, calculated by AUMC0-inf/AUC0-inf. The half-life (t1/2) of the terminal elimination phase was calculated by 0.693/λ. For both intravenous and subcutaneous administration, the systemic exposures were determined by calculating the area under the blood concentration time curve (AUC) from time zero to the last observed quantifiable concentration (AUClast) by using the linear trapezoidal method and normalised to dose. Extrapolated AUC (AUC0-inf) is calculated by addition of AUClast and AUCtlast-inf; where AUCtlast-inf is calculated based on Clast/λ. The slope of the terminal elimination phase was estimated by linear regression of the terminal data points (minimum 3 points) from a natural log concentration versus time plot of the data. Bioavailability was calculated as the dose normalized ratio of […] AUCinf to intravenous AUCinf (100*[SC AUCinf/SC dose]/[IV AUCinf/IV dose]). Following subcutaneous administration Cmax is calculated as the average maximum observed peak concentration and Tmax is the time associated with the determined Cmax.

[4] = BTK FAC plasma stability assay, dog plasma; format: in vitro ADME
[5] = BTK FAC plasma stability assay, rat plasma; format: in vitro ADME; conditions: for Plasma stability (h) rat: incubation to 24 h
Method in brief: as §1

[6] = BTK FAC plasma stability assay, cyno plasma; format: in vitro ADME, cynomolgus monkey
BTK C481S = molecular target: T1, BTK C481S (Homo sapiens, UniProt Q06187, C481S); assay: PD screen in TMD8 BTK C481S mutant tumor-bearing mice, BTK levels and compound concentrations in blood and tumor; format: in vivo, mouse; conditions: i.v.; 50 umol/kg
T1 construct: endogenous in cells; host or cells: TMD8 BTK C481S mutant tumour xenografts in mice
T1 sequence (Q06187 whole entry C481S): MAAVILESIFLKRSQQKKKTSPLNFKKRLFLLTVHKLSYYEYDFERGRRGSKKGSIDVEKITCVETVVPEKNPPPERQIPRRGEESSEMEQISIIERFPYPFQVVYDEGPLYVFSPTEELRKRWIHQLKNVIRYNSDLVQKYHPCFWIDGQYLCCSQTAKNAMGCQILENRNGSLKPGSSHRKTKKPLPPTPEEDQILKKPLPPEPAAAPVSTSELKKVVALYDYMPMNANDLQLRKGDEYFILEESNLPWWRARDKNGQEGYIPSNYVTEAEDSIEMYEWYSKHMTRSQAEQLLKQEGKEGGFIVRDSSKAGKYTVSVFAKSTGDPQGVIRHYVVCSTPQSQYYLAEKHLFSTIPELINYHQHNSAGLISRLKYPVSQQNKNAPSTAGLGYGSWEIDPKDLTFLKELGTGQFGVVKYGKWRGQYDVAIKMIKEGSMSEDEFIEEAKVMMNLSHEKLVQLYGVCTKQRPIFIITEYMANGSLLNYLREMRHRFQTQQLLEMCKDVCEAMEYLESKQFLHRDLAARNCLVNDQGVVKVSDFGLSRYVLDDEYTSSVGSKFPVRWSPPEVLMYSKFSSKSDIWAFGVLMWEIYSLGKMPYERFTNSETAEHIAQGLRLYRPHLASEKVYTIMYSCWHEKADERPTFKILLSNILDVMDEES
Method in brief: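 Single compound injection in mice bearing TMD8 BTK C481S tumors, groups of 2, with blood and tumor sampled at day 0, 4, 7 and sometimes 10. Compound levels measured by UPLC/MS-MS and BTK levels by Meso Scale Discovery.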

[7] = In vivo pharmacokinetic study in mice (i.v. or s.c.), FAC and payload in blood; parameters: species or system mouse; conditions: male, C57/B16, mouse, in vivo, iv; analyte FAC; FAC i.v. dose 10 umol/kg; read-out: FAC AUC-uM.h mouse
Procedure: as §2
[…] Serial 30 µL blood samples were collected via venipuncture of the tail vein in mouse, and via the cannulated jugular vein in rats at defined timepoints to 216 hours (into EDTA coated tubes).
as §3, §4, §5
For PK experiments, non-tumor bearing mice or rats were treated once (10 mL/kg) with a compound either i.v. or s.c. Serial blood samplings from the tail vein (5-20 μl) were collected during the course of the experiment. For PK/PD experiments in tumor-bearing mice, compound was administered once (10 mL/kg) either i.v. or s.c. Animals were randomized into groups of n=3 and tissue samples were collected at several time points. At the times indicated, animals were anaesthetized by exposure to 2-3% v/v isoflurane in medical oxygen. They were sacrificed without recovering from anesthetic after blood sampling into commercially prepared EDTA coated tubes (Milian, cat #TOM-14C) in order to extract plasma. The tissues were excised, weighted and rapidly frozen in liquid nitrogen. Later, tumors were cryogenic dry pulverized with the CryoPrep™ system (model CP-02, Covaris). For efficacy experiments in ectopic tumor-bearing mice, animals were randomized into groups of n=6 for a mean tumor size of 100 mm^3 and compound was administered either i.v. q3w or s.c. q2w. When implanted in brain, animals were randomized into groups of n=4 for a mean bioluminescence of 1.0-2.0E+06 [p/s]/[ρW/cm^2] and compound was administered i.v. qw. Tumor response were reported with the measures of tumor volumes or bioluminescence from the treatment start. […]

In the case of `CCCCCCCCCCCN(C(=O)CCCCCCCCCC(=O)O)C(CCC(=O)NCCOCCOCCOCCOCCOCCOCCOCCOCCOCCOCCOCCOCCC(=O)NC(C)(C)CC(=O)OC(C)(C)c1ccc(C(=O)Nc2cc(F)cc(-c3ncnc4[nH]c(-c5ccc(CCN6CCC7(CC6)CCN(C(=O)c6ccc(OC)c(N8CCC(=O)NC8=O)c6)CC7)cc5)cc34)c2C)c(F)c1)C(=O)O` (stereo not drawn) [Example A18, 51-Carboxy-2-(4-((3-(6-(4-(2-(9-(3-(2,4-dioxotetrahydropyrimidin-1(2H)-yl)-4-methoxybenzoyl)-3,9-diazaspiro[5.5]undecan-3-yl)ethyl)phenyl)-7H-pyrrolo[2,3-d]pyrimidin-4-yl)-5-fluoro-2-methylphenyl)carbamoyl)-3-fluorophenyl)-2,6,6-trimethyl-4,8,48,53-tetraoxo-52-undecyl-3,11,14,17,20,23,26,29,32,35,38,41,44-tridecaoxa-7,47,52-triazatrihexacontan-63-oic acid], the “% Release of degrader after 24 h mouse” value [1] is reported as 0.8%, the “Plasma stability (h) mouse” value [1] is reported as greater than 48 h and the “% Release of degrader after 24 h PBS” value [2] is reported as 0.6%. For the same compound, the “Plasma stability (h) PBS” value [2] was greater than 48 h, the “Payload C0-uM dog” value [3] was 0.3 µM and the “Plasma stability (h) dog” value [4] was greater than 48 h. The “% Release of degrader after 24 h dog” value [4] was 0.3%, the “% Release of degrader after 24 h rat” value [5] was 0.2% and the “Plasma stability (h) rat” value [5] was greater than 48 h. For the same compound, the “Plasma stability (h) cyno” value [6] was greater than 48 h, the “% Release of degrader after 24 h cyno” value [6] was 0.4% and the “Duration of BTK degradation in mouse ≥90%” value (BTK C481S) was less than 4 days.
With `CCCCCCCCCCCN(C(=O)CCCCCCCCCC(=O)O)C(CCC(=O)NCCOCCOCCOCCOCCOCCOCCOCCOCCOCCOCCOCCOCCC(=O)NCc1ccc(CC(=O)OC(C)(C)c2ccc(C(=O)Nc3cc(F)cc(-c4ncnc5[nH]c(-c6ccc(CCN7CCC8(CC7)CCN(C(=O)c7ccc(OC)c(N9CCC(=O)NC9=O)c7)CC8)cc6)cc45)c3C)c(F)c2)cc1)C(=O)O` (stereo not drawn) [Example A23, 46-Carboxy-1-(4-(2-((2-(4-((3-(6-(4-(2-(9-(3-(2,4-dioxotetrahydropyrimidin-1(2H)-yl)-4-methoxybenzoyl)-3,9-diazaspiro[5.5]undecan-3-yl)ethyl)phenyl)-7H-pyrrolo[2,3-d]pyrimidin-4-yl)-5-fluoro-2-methylphenyl)carbamoyl)-3-fluorophenyl)propan-2-yl)oxy)-2-oxoethyl)phenyl)-3,43,48-trioxo-47-undecyl-6,9,12,15,18,21,24,27,30,33,36,39-dodecaoxa-2,42,47-triazaoctapentacontan-58-oic acid] the “% Release of degrader after 24 h mouse” value [1] was 5.8%, the “Plasma stability (h) mouse” value [1] was greater than 48 h and the “% Release of degrader after 24 h PBS” value [2] was 0.2%. The “Plasma stability (h) PBS” value [2] was greater than 48 h, the AUC [7] was 856 µM·h and the “Payload C0-uM dog” value [3] was 0.59 µM. For the same compound, the “Plasma stability (h) dog” value [4] was greater than 48 h, the “% Release of degrader after 24 h dog” value [4] was 0.8% and the “% Release of degrader after 24 h rat” value [5] was 1.1%. For the same compound, the “Plasma stability (h) rat” value [5] was greater than 48 h, the “Plasma stability (h) cyno” value [6] was greater than 48 h and the “% Release of degrader after 24 h cyno” value [6] was 0.6%.
